Patent US9958461B2, “Detection of protein to protein interactions” (THE GOVERNING COUNCIL OF THE UNIVERSITY OF TORONTO, priority 2013, dated 2018)

Experiments:
EGFR-L858R = biological target: T1, EGFR-L858R (Homo sapiens, UniProt P00533, L858R); test: MaMTH EGFR-interactor screen, lentiviral preys against EGFR-L858R bait (interaction score); type: cell-based; conditions: MaMTH interaction score of prey with EGFR-L858R bait
T1 construct: with the advantage of testing full-length integral membrane proteins; (GGGGS)2 linker-Cub (human ubiquitin aa 35-76)-GAL4(1-147)-mNFkB(364-550) (C); expressed in transfected cells
Protocol: (§1) After lentivirus harvest, target cells (stable 5×GAL4UAS-luciferase reporter-HEK293T cells) were infected at a multiplicity of infection (MOI) of around 0.3-0.4 to ensure single copy integration per cell. Cells were selected in puromycin for at least 48 h and transfected with either EGFR-wildtype or EGFR-L858R baits in triplicates. 24 h after transfection, cells were lysed and luciferase assays performed. On each set of interaction assays, various negative controls were included. To calculate a MaMTH-interaction scores, negative controls were averaged and the fold-change of luciferase activity compared to the averaged controls was calculated and defined as the interaction score.
(§2) Each set of experiments contains a defined set of negative controls in at least three replicates. Negative controls were chosen as such that there is a range of controls showing high-background luciferase activity (normally cytosolic proteins: Fabp5, Pex19) as well as medium-background luciferase activity (membrane-bound interactors: Pex7, GABBR2). Negative controls were averaged and the fold-change of luciferase activity was calculated. Using this method, we have a stringent cut-off and chose an interaction score >1 to be interacting proteins.
(§3) Our cut-off of 1 is based on fold-change difference in luciferase activity over averaged negative controls. Negative controls include cytosolic preys (which tend to promiscuously bind to many proteins), plasma membrane- and peroxisomal-prey proteins. In general, we chose stringent conditions by testing preys that tend to have high luciferase background with any bait tested, in order to generate high-confidence interaction data. […] Phosphorylated tyrosine residues on the receptor are typically docking sites for downstream cytoplasmic targets and recognized through SH2 or PTB domains^43.

EGFR-Wt [1] = test: MaMTH EGFR-interactor screen, lentiviral preys against EGFR-wildtype bait (interaction score); type: cell-based, human; conditions: ratio of EGFR-Wt mean to EGFR-L858R mean interaction score
Protocol: as §1, §2, §3

EGFR-Wt [2] = biological target: T2, EGFR-Wt (Homo sapiens, UniProt P00533); test: as above; type: cell-based; conditions: MaMTH interaction score of prey with EGFR-Wt bait, mean
T2 construct: with the advantage of testing full-length integral membrane proteins; (GGGGS)2 linker-Cub (human ubiquitin aa 35-76)-GAL4(1-147)-mNFkB(364-550) (C); expressed in transfected cells
Protocol: as §1, §2, §3

| EGFR-L858R mean (EGFR-L858R) | EGFR-Wt mean (EGFR-Wt [2]) | Molecule | Wt/L858R (EGFR-Wt [1]) |
| --- | --- | --- | --- |
| 7.17 | 7.16 | CAMLG (protein, UniProt P49069 1-296, looked up) Guided entry of tail-anchored …: MESMAVATDGGERPGVPAGSGLSASQRRAELRRRKLLMNSEQRINRIMGFHRPGSGAEEESQTKSKQQDSDKLNSLSVPSVSKRVVLGDSVSTGTTDQQGGVAEVKGTQLGDKLDSFIKPPECSSDVNLELRQRNRGDLTADSVQRGSRHGLEQYLSRFEEAMKLRKQLISEKPSQEDGNTTEEFDSFRIFRLVGCALLALGVRAFVCKYLSIFAPFLTLQLAYMGLYKYFPKSEKKIKTTVLTAALLLSGIPAEVINRSMDTYSKMGEVFTDLCVYFFTFIFCHELLDYWGSEVP | 1.00 |
| 5.95 | 5.84 | TAB1 (protein, UniProt Q15750 1-504, looked up) TGF-beta-activated kinase 1 …: MAAQRRSLLQSEQQPSWTDDLPLCHLSGVGSASNRSYSADGKGTESHPPEDSWLKFRSENNCFLYGVFNGYDGNRVTNFVAQRLSAELLLGQLNAEHAEADVRRVLLQAFDVVERSFLESIDDALAEKASLQSQLPEGVPQHQLPPQYQKILERLKTLEREISGGAMAVVAVLLNNKLYVANVGTNRALLCKSTVDGLQVTQLNVDHTTENEDELFRLSQLGLDAGKIKQVGIICGQESTRRIGDYKVKYGYTDIDLLSAAKSKPIIAEPEIHGAQPLDGVTGFLVLMSEGLYKALEAAHGPGQANQEIAAMIDTEFAKQTSLDAVAQAVVDRVKRIHSDTFASGGERARFCPRHEDMTLLVRNFGYPLGEMSQPTPSPAPAAGGRVYPVSVPYSSAQSTSKTSVTLSLVMPSQGQMVNGAHSASTLDEATPTLTNQSPTLTLQSTNTHTQSSSSSSDGGLFRSRPAHSLPPGEDGRVEPYVDFAEFYRLWSVDHGEQSVVTAP | 0.98 |
| 2.92 | 3.05 | APBB2 (protein, UniProt Q92870 1-758, looked up) Amyloid beta precursor …: MSEVLPADSGVDTLAVFMASSGTTDVTNRNSPATPPNTLNLRSSHNELLNAEIKHTETKNSTPPKCRKKYALTNIQAAMGLSDPAAQPLLGNGSANIKLVKNGENQLRKAAEQGQQDPNKNLSPTAVINITSEKLEGKEPHPQDSSSCEILPSQPRRTKSFLNYYADLETSARELEQNRGNHHGTAEEKSQPVQGQASTIIGNGDLLLQKPNRPQSSPEDGQVATVSSSPETKKDHPKTGAKTDCALHRIQNLAPSDEESSWTTLSQDSASPSSPDETDIWSDHSFQTDPDLPPGWKRVSDIAGTYYWHIPTGTTQWERPVSIPADLQGSRKGSLSSVTPSPTPENEKQPWSDFAVLNGGKINSDIWKDLHAATVNPDPSLKEFEGATLRYASLKLRNAPHPDDDDSCSINSDPEAKCFAVRSLGWVEMAEEDLAPGKSSVAVNNCIRQLSYCKNDIRDTVGIWGEGKDMYLILENDMLSLVDPMDRSVLHSQPIVSIRVWGVGRDNGRDFAYVARDKDTRILKCHVFRCDTPAKAIATSLHEICSKIMAERKNAKALACSSLQERANVNLDVPLQVDFPTPKTELVQKFHVQYLGMLPVDKPVGMDILNSAIENLMTSSNKEDWLSVNMNVADATVTVISEKNEEEVLVECRVRFLSFMGVGKDVHTFAFIMDTGNQRFECHVFWCEPNAGNVSEAVQAACMLRYQKCLVARPPSQKVRPPPPPADSVTRRVTTNVKRGVLSLIDTLKQKRPVTEMP | 1.05 |
| 16.20 | 16.92 | ZAP70 (protein, UniProt P43403 1-619, looked up) Tyrosine-protein kinase ZAP-70: MPDPAAHLPFFYGSISRAEAEEHLKLAGMADGLFLLRQCLRSLGGYVLSLVHDVRFHHFPIERQLNGTYAIAGGKAHCGPAELCEFYSRDPDGLPCNLRKPCNRPSGLEPQPGVFDCLRDAMVRDYVRQTWKLEGEALEQAIISQAPQVEKLIATTAHERMPWYHSSLTREEAERKLYSGAQTDGKFLLRPRKEQGTYALSLIYGKTVYHYLISQDKAGKYCIPEGTKFDTLWQLVEYLKLKADGLIYCLKEACPNSSASNASGAAAPTLPAHPSTLTHPQRRIDTLNSDGYTPEPARITSPDKPRPMPMDTSVYESPYSDPEELKDKKLFLKRDNLLIADIELGCGNFGSVRQGVYRMRKKQIDVAIKVLKQGTEKADTEEMMREAQIMHQLDNPYIVRLIGVCQAEALMLVMEMAGGGPLHKFLVGKREEIPVSNVAELLHQVSMGMKYLEEKNFVHRDLAARNVLLVNRHYAKISDFGLSKALGADDSYYTARSAGKWPLKWYAPECINFRKFSSRSDVWSYGVTMWEALSYGQKPYKKMKGPEVMAFIEQGKRMECPPECPPELYALMSDCWIYKWEDRPDFLTVEQRMRACYYSLASKVEGPPGSTQKAEAACA | 1.04 |
| 4.47 | 4.63 | ABL2 (protein, UniProt P42684 2-1182, looked up) Tyrosine-protein kinase ABL2: GQQVGRVGEAPGLQQPQPRGIRGSSAARPSGRRRDPAGRTTETGFNIFTQHDHFASCVEDGFEGDKTGGSSPEALHRPYGCDVEPQALNEAIRWSSKENLLGATESDPNLFVALYDFVASGDNTLSITKGEKLRVLGYNQNGEWSEVRSKNGQGWVPSNYITPVNSLEKHSWYHGPVSRSAAEYLLSSLINGSFLVRESESSPGQLSISLRYEGRVYHYRINTTADGKVYVTAESRFSTLAELVHHHSTVADGLVTTLHYPAPKCNKPTVYGVSPIHDKWEMERTDITMKHKLGGGQYGEVYVGVWKKYSLTVAVKTLKEDTMEVEEFLKEAAVMKEIKHPNLVQLLGVCTLEPPFYIVTEYMPYGNLLDYLRECNREEVTAVVLLYMATQISSAMEYLEKKNFIHRDLAARNCLVGENHVVKVADFGLSRLMTGDTYTAHAGAKFPIKWTAPESLAYNTFSIKSDVWAFGVLLWEIATYGMSPYPGIDLSQVYDLLEKGYRMEQPEGCPPKVYELMRACWKWSPADRPSFAETHQAFETMFHDSSISEEVAEELGRAASSSSVVPYLPRLPILPSKTRTLKKQVENKENIEGAQDATENSASSLAPGFIRGAQASSGSPALPRKQRDKSPSSLLEDAKETCFTRDRKGGFFSSFMKKRNAPTPPKRSSSFREMENQPHKKYELTGNFSSVASLQHADGFSFTPAQQEANLVPPKCYGGSFAQRNLCNDDGGGGGGSGTAGGGWSGITGFFTPRLIKKTLGLRAGKPTASDDTSKPFPRSNSTSSMSSGLPEQDRMAMTLPRNCQRSKLQLERTVSTSSQPEENVDRANDMLPKKSEESAAPSRERPKAKLLPRGATALPLRTPSGDLAITEKDPPGVGVAGVAAAPKGKEKNGGARLGMAGVPEDGEQPGWPSPAKAAPVLPTTHNHKVPVLISPTLKHTPADVQLIGTDSQGNKFKLLSEHQVTSSGDKDRPRRVKPKCAPPPPPVMRLLQHPSICSDPTEEPTALTAGQSTSETQEGGKKAALGAVPISGKAGRPVMPPPQVPLPTSSISPAKMANGTAGTKVALRKTKQAAEKISADKISKEALLECADLLSSALTEPVPNSQLVDTGHQLLDYCSGYVDCIPQTRNKFAFREAVSKLELSLQELQVSSAAAGVPGTNPVLNNLLSCVQEISDVVQR | 1.04 |
| 3.26 | 3.12 | STAT5A (protein, UniProt P42229 1-794, looked up) Signal transducer and …: MAGWIQAQQLQGDALRQMQVLYGQHFPIEVRHYLAQWIESQPWDAIDLDNPQDRAQATQLLEGLVQELQKKAEHQVGEDGFLLKIKLGHYATQLQKTYDRCPLELVRCIRHILYNEQRLVREANNCSSPAGILVDAMSQKHLQINQTFEELRLVTQDTENELKKLQQTQEYFIIQYQESLRIQAQFAQLAQLSPQERLSRETALQQKQVSLEAWLQREAQTLQQYRVELAEKHQKTLQLLRKQQTIILDDELIQWKRRQQLAGNGGPPEGSLDVLQSWCEKLAEIIWQNRQQIRRAEHLCQQLPIPGPVEEMLAEVNATITDIISALVTSTFIIEKQPPQVLKTQTKFAATVRLLVGGKLNVHMNPPQVKATIISEQQAKSLLKNENTRNECSGEILNNCCVMEYHQATGTLSAHFRNMSLKRIKRADRRGAESVTEEKFTVLFESQFSVGSNELVFQVKTLSLPVVVIVHGSQDHNATATVLWDNAFAEPGRVPFAVPDKVLWPQLCEALNMKFKAEVQSNRGLTKENLVFLAQKLFNNSSSHLEDYSGLSVSWSQFNRENLPGWNYTFWQWFDGVMEVLKKHHKPHWNDGAILGFVNKQQAHDLLINKPDGTFLLRFSDSEIGGITIAWKFDSPERNLWNLKPFTTRDFSIRSLADRLGDLSYLIYVFPDRPKDEVFSKYYTPVLAKAVDGYVKPQIKQVVPEFVNASADAGGSSATYMDQAPSPAVCPQAPYNMYPQNPDHVLDQDGEFDLDETMDVARHVEELLRRPMDSLDSRLSPPAGLFTSARGSLS | 0.96 |
| 2.27 | 2.14 | Cdh1 (protein, UniProt P12830 155-882, looked up) Cadherin-1: DWVIPPISCPENEKGPFPKNLVQIKSNKDKEGKVFYSITGQGADTPPVGVFIIERETGWLKVTEPLDRERIATYTLFSHAVSSNGNAVEDPMEILITVTDQNDNKPEFTQEVFKGSVMEGALPGTSVMEVTATDADDDVNTYNAAIAYTILSQDPELPDKNMFTINRNTGVISVVTTGLDRESFPTYTLVVQAADLQGEGLSTTATAVITVTDTNDNPPIFNPTTYKGQVPENEANVVITTLKVTDADAPNTPAWEAVYTILNDDGGQFVVTTNPVNNDGILKTAKGLDFEAKQQYILHVAVTNVVPFEVSLTTSTATVTVDVLDVNEAPIFVPPEKRVEVSEDFGVGQEITSYTAQEPDTFMEQKITYRIWRDTANWLEINPDTGAISTRAELDREDFEHVKNSTYTALIIATDNGSPVATGTGTLLLILSDVNDNAPIPEPRTIFFCERNPKPQVINIIDADLPPNTSPFTAELTHGASANWTIQYNDPTQESIILKPKMALEVGDYKINLKLMDNQNKDQVTTLEVSVCDCEGAAGVCRKAQPVEAGLQIPAILGILGGILALLILILLLLLFLRRRAVVKEPLLPPEDDTRDNVYYYDEEGGGEEDQDFDLSQLHRGLDARPEVTRNDVAPTLMSVPRYLPRPANPDEIGNFIDENLKAADTDPTAPPYDSLLVFDYEGSGSEAASLSSLNSSESDKDQDYDYLNEWGNRFKKLADMYGGGEDD | 0.94 |
